“Also recorded” adds a separate entry of the source.

The results in this text go back to patent US10052415B2, “Tropoelastin for promoting endothelial cell adhesion or migration” (University of Utah Research Foundation, priority 2005, dated 2018).

The subject of assay [1] is A2058 human melanoma cells. Briefly: Cell adhesion assay, A2058 cells. The assay is classed as cell-based. On the procedure:
A2058 cells were assayed for adherence to substrates coated with BSA (control), fibronectin, tropoelastin, or a bioactive fragment of tropoelastin corresponding to a single repeat of the hexameric sequence VGVAPG (SEQ ID No. 5). In comparison to adherence to BSA, A2058 cells adhered to substrates coated with fibronectin tropoelastin, or a bioactive fragment of tropoelastin.
Cells were harvested with 0.25% trypsin/1 mM EDTA, washed three times in adhesion buffer (0.5% BSA in basal medium), suspended at a working density of 5×10^5/ml in adhesion buffer, and then allowed to recover for 1 h at 37° C. (5% CO2). For integrin-blocking assays, 25 μg/ml anti-integrin antibodies (Chemicon, Temecula, Calif.) or control IgG (Jackson ImmunoResearch Laboratories, Inc, West Grove, Pa.) were added to the cell suspension during the recovery period. During the cell recovery, the coated 96-well plates were washed twice in dPBS and blocked for 1 h at 25° C. in 5.0% BSA (dPBS). The blocking solution was removed, and the wells were washed twice in dPBS. Recovered cells were added to the coated wells in a volume of 100 μl per well and placed at 37° C. for 30 minutes (5% CO2). Following this incubation, the assay plate was inverted and assay wells were washed twice with 100 μl dPBS to remove non-specifically adhered cells. The wells were then fixed in Zamboni fixative, stained with Gill 1 hematoxylin, and overlayed with 80% glycerol. The assay was imaged at 100× magnification, capturing 3 random fields/well on a Zeiss Axiovert 200 inverted microscope equipped with a Zeiss Axiocam digital camera. Readings represent the number of adherent cells/well (average six high powered 100× fields, three taken from each of two separate wells).

Assay [2] concerns A2058 human melanoma cells. Briefly: Boyden chamber migration assay, A2058 cells. The assay is classed as cell-based. The conditions noted are these: FIG. 5. Here is the method:
Briefly, 16 h before the assay, 70% confluent 75 cm^2 flasks of human melanoma A2058 cell (ATCC, passage 3-12) or human aortic endothelial cells (HAEC; Cambrex, passage 4-7) were kept in basal media (dMEM+0.1% BSA, or EBM-2+1% FCS, respectively). Cells were lifted with 0.25% Trypsin/1 mM EDTA, diluted in 0.5% BSA (dMEM) and washed 3 times in basal media (dMEM+0.1% BSA) or (EBM-2+0.1% FCS,) and recovered in suspension at working density (2×10^6/ml for A2058 or 1.5×10^6 HAEC) for 1 h at 37° C. (5% CO2). For migration-inhibition assays, the cells were preincubated during the recovery period for 30 minutes in 25 μg/ml anti-integrin antibodies (Chemicon, Temecula, Calif.) or control IgG (Jackson ImmunoResearch, Inc.). All migration assays were performed in triplicate in a 48-well Boyden chamber apparatus (NeuroProbe, Cabin John, Md.). The recovered cells were added to the bottom chambers in a volume of 30 μl. The wells were overlayed with an 8 μm-pore polycarbonate membrane (NeuroProbe, Cabin John, Md.) and coated with 100 μg/ml Rat tail collagen (Trevigen, Gaithersburg, Md.) for A2058 cells or acetylated 1% gelatin from porcine skin (Sigma, St. Louis, Mo.) for HAEC. The apparatus was assembled and stored inverted at 37° C. (5 CO2) for a 2 h adhesion-period. […] Readings represent the number of cells migrating through the membrane (the sum of two high power X 20 fields/well, averaged for each sextuplicate-well set).

The test system of assay [3] is endothelial progenitor cells. The experiment in a line: Cell spreading on coated stainless steel disks (phalloidin/DAPI staining). The assay is classed as cell-based, human. Particulars: Triton X-100 permeabilized, phalloidin and DAPI staining. From the text:
We also examined the appearance of the adherent endothelial cells.
Cell spreading was examined by permeabilizing the endothelial cells that had adhered to the coated metal surfaces with Triton X-100 and staining with phalloidin to highlight the actin cytoskeleton and DAPI to mark cell nuclei. […] Thus, stainless steel surfaces coated with either tropoelastin or anti-CD34 antibody would likely endothelialize more rapidly than would similar bare metal surfaces when intravascularly placed.
Adhesion assays on 6 mm stainless steel disks (Orbus Medical Technologies, Ft Lauderdale, Fla.) pre-coated with anti-CD34 antibody, tropoelastin, coating vehicle, or uncoated metal were performed in a similar fashion as described above, with the following modifications: 48-well plates were used to hold the disks during the assay period to facilitate manipulation of the disks and twice the volume of cell suspension was applied (200 μl/well). Exemplary amounts of total protein covalently attached to each disk were approximately 100 micrograms. Post-adhesion, the wells were washed twice in dPBS, using a swirling motion to dislodge non-specifically adhered cells. […]

B1: tropoelastin: recombinant human tropoelastin lacking native signal sequence, 10× His tag and Factor Xa site on N-terminus, 706 amino acid residues (SEQ ID NO: 4) (protein, listed as Homo sapiens)
chain: MGHHHHHHHHHHSSGGIEGRGGVPGAIPGGVPGGVFYPGAGLGALGGGALGPGGKPLKPVPGGLAGAGLGAGLGAFPAVTFPGALVPGGVADAAAAYKAAKAGAGLGGVPGVGGLGVSAGAVVPQPGAGVKPGKVPGVGLPGVYPGGVLPGARFPGVGVLPGVPTGAGVKPKAPGVGGAFAGIPGVGPFGGPQPGVPLGYPIKAPKLPGGYGLPYTTGKLPYGYGPGGVAGAAGKAGYPTGTGVGPQAAAAAAAKAAAKFGAGAAGVLPGVGGAGVPGVPGAIPGIGGIAGVGTPAAAAAAAAAAKAAKYGAAAGLVPGGPGFGPGVVGVPGAGVPGVGVPGAGIPVVPGAGIPGAAVPGVVSPEAAAKAAAKAAKYGARPGVGVGGIPTYGVGAGGFPGFGVGVGGIPGVAGVPGVGGVPGVGGVPGVGISPEAQAAAAAKAAKYGVGTPAAAAAKAAAKAAQFALLNLAGLVPGVGVAPGVGVAPGVGVAPGVGLAPGVGVAPGVGVAPGVGVAPGIGPGGVAAAAKSAAKVAAKAQLRAAAGLGAGIPGLGVGVGVPGLGVGAGVPGLGVGAGVPGFGAVPGALAAAKAAKYGAAVPGVLGGLGALGGVGIPGGVVGAGPAAAAAAAKAAAKAAQFGLVGAAGLGGLGVGGLGVPGVGGLGGIPPAAAAKAAKYGVAARPGFGLSPIFPGGACLGKACGRKRK
Take B1: the “level of A2058 adhesion relative to fibronectin” value in assay [1] (50 μg/ml of tropoelastin) is given as “similarly to 10 ug/ml of fibronectin”. Moreover, the “dose dependence of A2058 adhesion” value in assay [1] (FIG. 4) is reported as “dose dependent”. The “adhesion of A2058 cells in comparison to BSA” value in assay [1] (FIG. 4, coated substrates, peptide 10 μM) was “adhered”. Besides, in assay [2], the “level of A2058 migration compared among tropoelastin and fragments” value was “promoted migration of A2058 cell at comparable levels”. The “spreading of adherent cells across the surface of the coated disk” value in assay [3] was “promoted spreading of the adherent cells across the surface of the device; also recorded: well spread cytoplasm and an organized actin cytoskeleton”.
